PMC5117957 (Journal of immunology (Baltimore, Md. : 1950), 2016)

Molecular target: gp120 (derived from isolate YU2) (HIV-1 isolate YU2, UniProt P35961)
Experiment: ELISA

B1: CD4bs MAb F105 (antibody, V domains shown)
VH: QVQLQESGPGLVKPSETLSLTCTVSGGSISSHYWSWIRQSPGKGLQWIGYIYYSGSTNYSPSLKSRVTISVETAKNQFSLKLTSMTAADTAVYYCARGPVPAVFYGDYRLDPWGQGTLVTVSS
VL: EIVLTQSPGTLSLSAGERATLSCRASQSVSSRYLAWYQQKPGQAPRLLIYGASSRATGIPDRFSGSGSGTDFTLTISRVEPEDFAVYYCQQYDNSVCTFGQGTKLEIK
  binding result: binds
